Measured values: patent US20120122765A1, “COMPOUNDS AND RELATED METHODS FOR MANIPULATING PARP-1-DEPENDENT CELL DEATH” (priority 2010, published 2012)
Residue numbers refer to the chain shown, from its start. Entries after “also recorded” stand apart in the source; their conditions may differ. Where a SMILES comes first, the peptide text is derived from it. The star is where a group is joined. Cbz = O=C(OCc1ccccc1)*; CH2F = FC*

Key:
Hq MEFs = experiment: MNNG cytotoxicity in Hq MEFs; format: cell-based, mouse; details: 24 hours after MNNG 500 μM for 15 min
Experimental: Further, the effect WT-AIF-Flag or Pbm-AIF-Flag on Hq MEF cell viability was determined 24 hours after MNNG (500 μM for 15 min) cytotoxicity with and without zVAD (100 μM), and the results of three trials is reported in FIG. 17B.

Hq cortical neurons = experiment: NMDA excitotoxicity in Hq cortical neurons; format: cell-based, mouse
Experimental: HQ cortical neuron cells were transduced with lentivirus carrying WT-AIF-Flag or Pbm-AIF-Flag. Non-transduced neurons and GFP-lentivirus infected cells were used as negative controls. […] In those photos, blue indicates Hoechst 33342 staining and red indicates propidium iodide staining. […] The cytotoxicity in these Hq cortical neurons was measured at 24 hours, 36 hours, and 48 hours after NMDA (500 μM for 5 min) treatment, and the data for this is reported in the graph of FIG. 18B.

PAR [1] = experiment: nitrocellulose saturation binding experiments; details: result in words
Source text: Applicants thereafter repeated the experiments using both wild type and mutant AIFm peptides spanning only amino acids 567-592 instead of full length AIFm and obtained results consistent with those using full-length AIF. […] The double amino acid mutant Dm (corresponding to only amino acids 567-592 of AIF-Dm so as to consist of SEQ. ID NO. 16) bound PAR. […] Thus, it is preferred in embodiments of the invention when conducting genetic manipulations to convert at least three target basic amino acids in the PBM to hydrophobic amino acids.
The PAR polymer binding properties of the mutant Pbm-AIF was then measured using full-length recombinant His-WT-AIF and His tagged Pbm-AIF (“His-Pbm-AIF”) via a series of nitrocellulose saturation binding experiments. Similar experiments were also conducted for the shorter peptides Dm and Tm in comparison to WT. FIG. 10B through FIG. 10D comprise charts reporting data from these various experiments. With regard to the shorter peptides, Applicants determined that the binding affinity constant (“Kd”) and maximum binding capacity (“Bmax”) of these AIF mimetic peptides and the results are reported in the chart of FIG. 10B. […] FIG. 10D comprises a Scatchard plot (95% confidence interval) of the results.

[2] = NADH oxidase activity of AIF; format: biochemical; details: compared to His-WT-AIF
Experimental: Unless otherwise set forth herein, the determination of NADH Oxidase Activity and FAD binding of AIF in the various examples below was performed using the following materials and procedures. AIF's NADH oxidase activity was determined as previously described by M. Miramar et al. (J Biol Chem, 2001). In brief, the NADH oxidase activity was measured at room temperature in substrate solution containing 250 μM NADH in air-saturated 50 mM Tris-HCl, pH 8.0. The decrease in absorbance at OD340 nm was monitored right after the addition of recombinant His-tagged AIF into the substrate solution. In situ redox activity of recombinant His-tagged AIF was performed as previously described by J. Gagne et al. (Nucleic Acids Res, 2008). […] FAD binding to AIF was monitored at 13 μM concentration of His-tagged AIF by wave length scanning ranging from 250-800 nm using Beckman Coulter DU800 UV/Vis spectrophotometer.
Independent of its role in parthanatos, AIF has NADH (the reduced form of nicotinamide adenine dinucleotide) oxidase activity, binds to FAD (flavin adenine dinucleotide) and DNA, and causes nuclear condensation. To determine whether the triple amino acid mutation found in Pbm-AIF interferes with these properties, Applicants assessed the NADH oxidase activity, FAD-binding capacity, and DNA-binding capacity of full-length His-WT-AIF and His-Pbm-AIF. […]

[3] = FAD binding by spectrophotometric wave length scanning; details: His-Pbm-AIF versus His-WT-AIF
Experimental: Unless otherwise set forth herein, the determination of NADH Oxidase Activity and FAD binding of AIF in the various examples below was performed using the following materials and procedures. AIF's NADH oxidase activity was determined as previously described by M. Miramar et al. (J Biol Chem, 2001). In brief, the NADH oxidase activity was measured at room temperature in substrate solution containing 250 μM NADH in air-saturated 50 mM Tris-HCl, pH 8.0. The decrease in absorbance at OD340 nm was monitored right after the addition of recombinant His-tagged AIF into the substrate solution. In situ redox activity of recombinant His-tagged AIF was performed as previously described by J. Gagne et al. (Nucleic Acids Res, 2008). The AIF protein was separated on a 10% native gel and then the gel was briefly washed in distilled water. The gel was equilibrated in 2,2′-Di-p-nitrophenyl-5-5′-diphenyl-3,3′ (3-3′-dimethoxy-4-4′difenilen)tetrazolium chloride (“NBT”) solution for 20 minutes in the dark followed by the addition of 1 mM NADH to NBT solution to reduce NBT. FAD binding to AIF was monitored at 13 μM concentration of His-tagged AIF by wave length scanning ranging from 250-800 nm using Beckman Coulter DU800 UV/Vis spectrophotometer.
FAD binding of His-WT-AIF and His-Pbm-AIF was determined by spectrophotometric wave length scanning of purified proteins. […]

DNA = DNA retardation assay; format: binding; details: DNA (200 ng), 30 minutes
Experimental: AIF binding-mediated DNA mobility retardation was performed as described by H. Cande et al. (Nat Struct Biol, 2002). Recombinant His-tagged AIF (10 μg or 25 μg) was incubated with 1 kb DNA molecular weight marker (obtained from Fermentas) for 30 minutes at room temperature and loaded on 2.5% agarose gel prestained with ethidium bromide (1 μg/ml). Mobility shift was visualized under the Alpha Innotech UV illuminator.
Further, a DNA retardation assay of His-WT-AIF and His-Pbm-AIF was conducted by incubating both with DNA (200 ng) for 30 minutes, using BSA as a negative control.

PAR [4] = experiment: co-immunoprecipitation with PAR in HeLa cells; format: cell-based
Experimental: The following experiment was performed to confirm whether AIF in fact binds to PAR in intact cells. Applicants exposed HeLa cells stably transduced with lentivirus C-terminal Flag-tagged mouse wild type AIF (WT-AIF-Flag) to MNNG, a DNA alkylating agent that activates PARP-1 and kills cells primarily through parthanatos. […] FIG. 2A comprises two side by side black and white photos of representative gels obtained by Applicants, showing the impact of MNNG upon these HeLa cells (left photo being HeLa cells without MNNG, and right photo being HeLa cells 2 hours after MNNG treatment at 50 μM for 15 min). […] FIG. 2B is a chart reporting the data regarding the relative intensity of the interaction pre and post MNNG for these experiments (*** indicates p<0.001).

[5] = test system: Hq mouse cortical neuronal cultures; experiment: AIF translocation to the nucleus in Hq cortical neurons; format: cell-based
Experimental: Unless otherwise set forth herein, immunocytochemistry, immunohistochemistry and confocal microscopy as referenced in the examples entailed the following materials and procedures. […] AIF was visualized by 2 μg/ml mouse anti-Flag/Cyt AffiniPure Donkey Anti-Mouse IgG or rabbit anti-AIF/Cy3 AffiniPure Donkey Anti-Rabbit IgG. Immunohistochemistry was performed using the antibody against Flag. Immunofluorescence analysis thereafter was carried out by using a LSM510 confocal laser scanning microscope (obtained from Carl Zeiss Microlmaging) as described by H. Wang et al. (J. Neurosci, 2004).
Again, AIF translocation to the nucleus was monitored two hours after NMDA (500 μM, 5 minutes) treatment sufficient to initiate parthanatos in wild-type cells.

HeLa cells = experiment: AIF nuclear translocation in HeLa cells after MNNG; format: cell-based; details: MNNG 50 μM for 15 minutes, confocal image analysis
Experimental: Unless otherwise set forth herein, immunocytochemistry, immunohistochemistry and confocal microscopy as referenced in the examples entailed the following materials and procedures. For immunocytochemistry, cells were fixed 2 hours after treatment with 4% paraformaldehyde, permeabilized with 0.05% Triton X-100, and blocked with 3% bovine serum albumin in PBS. AIF was visualized by 2 μg/ml mouse anti-Flag/Cyt AffiniPure Donkey Anti-Mouse IgG or rabbit anti-AIF/Cy3 AffiniPure Donkey Anti-Rabbit IgG. Immunohistochemistry was performed using the antibody against Flag. Immunofluorescence analysis thereafter was carried out by using a LSM510 confocal laser scanning microscope (obtained from Carl Zeiss Microlmaging) as described by H. Wang et al. (J. Neurosci, 2004).

Hq mice [6] = experiment: NMDA excitotoxicity in hippocampal CA1 region of Hq mice; format: in vivo, mouse; details: AAV2 in CA1, 60 hours after NMDA
Experimental: Seven days following virus injection, Applicants injected NMDA into the right CA1 region and saline into the left CA1 region, and then assessed CA1 lesion volume 60 hours later. […] FIG. 20B is an array of six representative Nissl staining photos taken 60 hours post NMDA injection, while FIG. 20C is a graph of the experimental data obtained for lesion volume percentages.

Hq mice [7] = experiment: NMDA excitotoxicity in striatum of Hq mice
Experimental: 1 μl Lentivirus (5×1010 T.U./ml) carrying WT-AIF-Flag, Pbm-AIF-Flag, or GFP was injected into striatum on both sides of the brain (rostral, 0.4 mm; lateral+/−1.7 mm; ventral 3.5 mm from bregma), and 1 μl AAV2 (1×1013 T.U./ml) carrying WT-AIF-Flag, Pbm-AIF-Flag or GFP was injected into CA1 in hippocampi on both sides of the brain (posterior, 2.0 mm; lateral+/−1.5 mm; ventral 1.5 mm from bregma) using a stereotactic frame (Kopf) (0.02 ml/min). The needle was left in place for an additional 8 minutes after injection. One week after the first injection, 20 nmol NMDA or normal saline in 0.8 μl was injected into the right and left striatum (0.02 μl/min), respectively. The needle was left in place for an additional 8 minutes after injection. Lesion volumes were assessed at 48 hours, 60 hours, or 168 hours after NMDA administration. At the indicated time point after the second injection, the mice were deeply anesthetized, and then perfused with saline and 4% paraformaldehyde. After postfixation and freezing in 20% glycerol-PBS, brain sections (30 μm) were obtained for Nissl staining and immunohistochemistry analysis.
Applicants next assessed whether replacement of WT-AIF-Flag or Pbm-AIF-Flag through lentiviral transduction would restore the sensitivity of Hq mice to NMDA excitotoxicity. […]

[8] = test system: mitochondria of HeLa cells; experiment: in vitro AIF release from mitochondria of HeLa cells; details: purified PAR, transiently transfected HeLa cells
Experimental: (§1) Unless otherwise set forth herein, mitochondria isolation and in vitro AIF release assays as referenced in the examples below were performed using the following materials and procedures. Mitochondria were prepared from HeLa cells and cortical neurons as follows by harvesting cells, re-suspending them in 2 ml MIB buffer (10 mM HEPES, pH 7.4, 300 mM sucrose, 1 mM EGTA), and homogenizing by 60 strokes with B type Dounce homogenizer. Nuclei were pelleted at 750×g for 5 minutes and mitochondria were spun down at 3,000×g for 10 minutes. Isolated mitochondria were dissolved in a minimum volume of sucrose buffer (10 mM HEPES, pH 7.4, 300 mM sucrose) and protein concentration was adjusted to 2 mg/ml. […] In vitro AIF release was carried out at room temperature for 30 minutes in assay buffer (20 mM HEPES, pH 7.4, 125 mM KCl, 2 mM K2HPO4, 4 mM MgCl2, 5 mM succinate, 2 mM rotenone, 3 μM ATP and 1 μM ADP) in the presence of 100 nM PAR and 1 mg/ml isolated mitochondria. […]
(§2) Next, Applicants used Hq cortical neurons transduced with WT-AIF-Flag or Pbm-AIF-Flag lentiviruses to determine whether PAR plays a direct role in mitochondrial AIF release. […] Three days after lentivirus infection, mitochondria were isolated and exposed to purified PAR to elicit in vitro AIF release by incubation with PAR for 30 minutes, and the levels of AIF were determined in the mitochondria and in the supernatant.

PAR [9] = experiment: co-immunoprecipitation with PAR in Hq cortical neurons
Experimental: For co-immunoprecipitation, the post-nuclear cell extracts, which is the fraction prepared from whole cell lysates after removing nuclear proteins, were isolated in hypotonic buffer as previously described by S. Andrabi et al., and then incubated overnight with an antibody against PAR in the presence of protein A/G Sepharose (obtained from Santa Cruz Biotechnology, of Santa Cruz, Calif.), followed by immunoblot analysis with mouse anti-Flag antibody (obtained from Sigma). The proteins were separated on denaturing polyacrylamide gel electrophoresis (SDS-PAGE) and transferred to nitrocellulose membrane. […] After washing, the immune complexes were detected by the SuperSignal West Pico Chemiluminescent Substrate. The integrity of the nuclear and postnuclear subcellular fractions was determined by monitoring histone and MnSOD immunoreactivity, respectively.
To determine whether Pbm-AIF fails to bind to PAR in cultured cortical neurons, neuronal cultures were transduced by lentivirus with WT-AIF-Flag or Flag-tagged Pbm-AIF (“Pbm-AIF-Flag”). […] AIF was translocation to the nucleus for each neuron culture was monitored 2 hours after administration of NMDA (500 μM NMDA for 5 minutes). […]

[10] = test system: mitochondria isolated from cortical neurons; experiment: in vitro AIF release from mitochondria of Hq cortical neurons; details: incubation with purified PAR for 30 minutes
Experimental: as §1, §2

CC(NC(=O)C(NC(=O)OCc1ccccc1)C(C)C)C(=O)NC(CC(=O)O)C(=O)CF (stereo not drawn) [zVAD, reference compound] (Cbz-Val-Ala-Asp-CH2F; configuration not given here)
effect on MNNG-induced cell death (Hq MEFs; zVAD 100 μM): failed to influence MNNG-induced cell death in MEFs
effect on NMDA-induced cortical neuron death (Hq cortical neurons; DPQ (30 μM) or zVAD (100 μM) in addition to NMDA): did not

B1: His-Pbm-AIF: His tagged Pbm-AIF (protein, UniProt Q9Z0X1 1-612, looked up, variant R588A K589A K592A)
chain: MFRCGGLAGAFKQKLVPLVRTVYVQRPKQRNRLPGNLFQQWRVPLELQMARQMASSGSSGGKMDNSVLVLIVGLSTIGAGAYAYKTIKEDQKRYNERVMGLGLSPEEKQRRAIASATEGGSVPQIRAPSHVPFLLIGGGTAAFAAARSIRARDPGARVLIVSEDPELPYMRPPLSKELWFSDDPNVTKTLQFRQWNGKERSIYFQPPSFYVSAQDLPNIENGGVAVLTGKKVVHLDVRGNMVKLNDGSQITFEKCLIATGGTPRSLSAIDRAGAEVKSRTTLFRKIGDFRALEKISREVKSITVIGGGFLGSELACALGRKSQASGIEVIQLFPEKGNMGKILPQYLSNWTMEKVKREGVKVMPNAIVQSVGVSGGRLLIKLKDGRKVETDHIVTAVGLEPNVELAKTGGLEIDSDFGGFRVNAELQARSNIWVAGDAACFYDIKLGRRRVEHHDHAVVSGRLAGENMTGAAKPYWHQSMFWSDLGPDVGYEAIGLVDSSLPTVGVFAKATAQDNPKSATEQSGTGIRSESETESEASEITIPPSAPAVPQVPVEGEDYGKGVIFYLRDKVVVGIVLWNVFNRMPIAAAIIADGEQHEDLNEVAKLFNIHED
modifications: full-length His tag
PAR binding in saturation binding experiments (PAR [1]): much less (and virtually linear) binding
NADH oxidase activity [2]: no significant change in NADH oxidase activity
FAD binding properties [3]: no significant difference
DNA-binding properties (DNA): comparable

B2: WT-AIF-Flag: C-terminal Flag-tagged mouse wild type AIF, delivered by lentivirus, AAV2 or transfection (protein, UniProt Q9Z0X1 1-612, looked up)
chain: B1 chain with A588R, A589K, A592K
modifications: full-length C-terminal Flag tag
notes: C-terminal Flag-tagged mouse wild type AIF, delivered by lentivirus, AAV2 or transfection
change of interaction with PAR following MNNG treatment (PAR [4]; 2 hours after MNNG 50 μM for 15 min): significantly increased
co-immunoprecipitation with PAR (PAR [4]; postnuclear fractions, non-MNNG- and MNNG-treated HeLa cells): co-immunoprecipitated with PAR in resting cells
translocation to the nucleus after staurosporine ([5]; 100 nM staurosporine, 24 hours): translocate from the mitochondria to the nucleus
translocation to the nucleus after NMDA ([5]; two hours after NMDA (500 μM, 5 minutes), immunoblot of fractions or confocal image analysis): translocated to the nucleus; also recorded: observed in the nucleus
nuclear translocation after MNNG (HeLa cells): translocated to the nucleus 4 hours following MNNG treatment
effect on MNNG-induced cell death (Hq MEFs; Hq MEFs): restored their susceptibility to MNNG toxicity
effect on susceptibility to NMDA excitotoxicity (Hq cortical neurons; lentivirus-transduced Hq cortical neurons, NMDA 500 μM for 5 min, 24, 36, 48 hours): restored Hq cortical neuron susceptibility to NMDA excitotoxicity
CA1 lesion volume (Hq mice [6]): large lesion volume
sensitivity to NMDA excitotoxicity (lesion volume) (Hq mice [7]; lentivirus in striatum, NMDA 20 nmol, 48 hours or 60 hours): restored sensitivity to NMDA excitotoxicity
survival after the NMDA injection (Hq mice [7]; lentivirus-injected Hq mice, WT-AIF-Flag with one exception): < 168 h
PAR-induced release from mitochondria [8]: induced the release
change of interaction with PAR following NMDA treatment (PAR [9]; 2 hours after 500 μM NMDA for 5 minutes): significantly increased
co-immunoprecipitation with PAR (PAR [9]; postnuclear fractions, non-NMDA- and NMDA-treated cultures): pulled down
PAR-induced release from mitochondria [10]: induced the release
